Measurements published in publication PMC6303335.

Biological target: VACV B18
Assay: SPR

Substance human IFNα-2b has a koff of 0.000225 s⁻¹.
